Results from the Human Domainome abundance scans (Beltran et al. 2025).

B1: Tyrosine-protein kinase Lck, residues 63 to 120; numbered along this chain, P06239 (parent)
chain: DNLVIALHSYEPSHDGDLGFEKGEQLRILEQSGEWWKAQSLTTGQEGFIPFNFVAKAN

Variants of: B1
Assay: abundance fitness (aPCA) (normalised: wild type 0, dead -1); higher = more abundant; growth selection in yeast, the domain comes from the species named
Conditions: Homo sapiens

Abundance fitness: each site, then its substitutions
I49: W -0.967, L -0.367, R -0.792, Y -1.2, A -0.646, V -0.094, S -0.939, N -0.828, H -0.794, P -0.759, M -0.663, D -0.801
N52: Y -0.311, T -0.207, R -0.017, Q -0.021, D 0.001, E 0.029, P -0.628, I -0.854, G -0.067, C -0.303, K 0.023, H -0.189, W -0.278, F -0.589, A -0.202, L -0.624, V -0.709
F48: Q -0.274, H -0.172, S -0.308, W 0.075, D -0.559, V -0.096, M -0.063, G -0.576, P -0.52, R 0.011, L 0.019, T -0.115, K 0.115, I -0.264, E -0.286
P50: F -0.885, T -0.851, N -0.652, S -0.796, D -0.73, E -1.21, K -0.719, H -0.474, A -1, G -0.888, Y -1.08, I -0.874, W -0.709, V -0.936, L -0.995, M -1.03
K56: R -0.09, W -0.095, P 0.04, N 0.055, V -0.118, E 0.022, D -0.108, Y -0.138, I -0.233, C -0.117, Q -0.174, S -0.002, G -0.123, T -0.095, L -0.217, H 0.015, F -0.087, M -0.146, A 0.019
F51: E -0.022, L -0.221, R 0.148, M 0.137, I 0.047, A 0.104, G 0.095, Y -0.037, Q 0.021, T -0.235, C 0.163, N 0.043, V -0.033, H -0.055, K 0.103, D -0.178, P 0.07
A55: G -0.007, I -0.084, Q 0.04, D -0.102, P -0.835, E 0.037, W -0.515, V -0.021, Y -0.261, T -0.013, R -0.019, F -0.369, C -0.141, L -0.4, K -0.154, N -0.231, H -0.27, M -0.12
A57: P -0.046, G -0.076, H -0.057, N -0.614, S -0.098, K -0.18, E 0.092, Y -0.176, V -0.023, L 0.003, Q -0.112, R -0.093, T 0.008, M -0.195, F -0.394, C -0.244, I -0.003, W -0.132
V54: C -0.375, K -1.05, I -0.416, N -0.859, R -0.813, Y -0.826, E -0.709, W -0.754, M -0.715, T -0.45, P -0.732, A -0.663, F -0.6, H -0.967, D -0.926, Q -0.901, L -0.705, S -0.751
F53: K -0.37, E -0.488, I -0.156, W -0.107, V -0.268, N -0.527, G -0.423, M -0.143, S 0.032, Q -0.293, A -0.013, R -0.196, C -0.157, P -0.842, H -0.162, T -0.214, L -0.028
